The series concerns the target T1, 6xHis-Ndt80 5D DBD (Saccharomyces cerevisiae, UniProt P38830 1-340, S24D;S205D;T211D;S327D;S329D).
T1 sequence: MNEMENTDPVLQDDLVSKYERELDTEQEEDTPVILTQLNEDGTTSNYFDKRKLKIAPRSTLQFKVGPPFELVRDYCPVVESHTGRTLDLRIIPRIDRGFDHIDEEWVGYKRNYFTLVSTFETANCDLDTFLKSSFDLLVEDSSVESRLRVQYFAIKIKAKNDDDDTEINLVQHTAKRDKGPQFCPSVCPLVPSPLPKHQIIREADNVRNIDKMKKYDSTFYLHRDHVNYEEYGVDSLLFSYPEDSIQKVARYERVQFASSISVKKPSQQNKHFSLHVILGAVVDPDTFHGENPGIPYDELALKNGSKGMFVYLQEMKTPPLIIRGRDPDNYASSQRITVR
In words: EMSA; 50 nM DBD, 50 nM duplex; EMSA: 10 mM Tris-HCl pH 7.5, 40 mM NaCl, 4 mM MgCl2, 6% glycerol, 10 mg/ml BSA, 10 ug/ml sonicated salmon sperm DNA; 20 ul, room temperature, 30 min; 6% PAGE in 0.5X TBE. To be noted: protein: recombinant, tags: N-terminal 6xHis (pET-28a), blunt. On the technique in general: Mobility shift assays separate free from complexed probe on a gel.

Here are results for two molecules from PMC6289461, “Mek1 coordinates meiotic progression with DNA break repair by directly phosphorylating and inhibiting the yeast pachytene exit regulator Ndt80”.

B1: Cy3-MSE (SPS4 MSE duplex) (dsDNA)
DNA 1: ATTGACGCGCGCCACAAAAACGTATCATT
DNA 2: AATGATACGTTTTTGTGGCGCGCGTCAAT
On to B1, for which the binding result (label: 5' Cy3 on strand 1) is listed as “no binding”.

B2: Cy5-Scr duplex (dsDNA)
DNA 1: ATTGACGCGGCTTCATCTCACGTATCATT
DNA 2: AATGATACGTGAGATGAAGCCGCGTCAAT
With B2, where the note is “label: 5' Cy5 on strand 1”, the binding result was “no binding”.
